The values below come from PMC4945409.

In the experiment the target is wild-type KDPG aldolase scaffold (1wa3). In words: SEC. A general note: SEC sorts molecules by how far they enter the pores of the column.

The term stoichiometry N denotes a count of units in the complex or per binding partner. The substance “wild-type KDPG aldolase scaffold (1wa3) (enzyme)” showed a stoichiometry N of 3.
